Measurements reported in patent US20100239588A1 (SHANGHAI NATIONAL ENGINEERING RESEARCH CENTER OF ANTIBODY …, published 2010).
Numbering of substitutions follows the chain as printed. One block for each binder: values may come before it. Ends that are not written are not given here.

Columns and labels:
human OPN protein [1] = target: T1, human OPN protein (human, UniProt P10451 17-314, limits assumed); assay: western blot
T1 construct: also called hOPN; human osteopontin

KLH-5F12 = target: T2, KLH-5F12 (also: coupled to KLH (site and chemistry not given here)); assay: dot blot, 10 ng dots of KLH peptide
T2 construct: Synthetic 5F12 peptide as a KLH conjugate, spotted in the dot blot; also called short peptide 5F12 coupled to KLH
T2 peptide: DVYWLMPDPPTS
Experimental: Dot-blot assay was as follows: three dots of 3×10 ng KLH-4B5 (irrelevant control) and KLH-5F12 respectively, were pointed. Each short peptide obtained in experiment V-4 was used to hybrid with three different antibodies. After being blocked and washed, the membrane was reacted with primary antibody at room temperature for 1 hour. Then, the membrane was washed again, and reacted with HRP-labeled anti-mouse secondary antibody at room temperature for 1 hour. After being washed, the membrane was pressed and exposed.

phage clone 5F12 = target: T3, phage clone 5F12; assay: phage clone panned on an antibody-coated plate, eluted titer
T3 construct: not shown: phage coat protein carrying the 12-mer (NEB Ph.D.-12 library)
T3 peptide: DVYWLMPDPPTS

phage clone 5D2 = target: T4, phage clone 5D2; assay: as above
T4 construct: The sentence also calls it a 'synthetic short peptide'; not shown: phage coat protein carrying the 12-mer (NEB Ph.D.-12 library)
T4 peptide: GTSTEVWLAPDP

human OPN protein [2] = target: T1, human OPN protein; assay: western blot, 5 ug hOPN per lane
Experimental: SDS-PAGE (10%) electrophoresis was carried out (5 ug hOPN/lane). hOPN was transferred to nitrocellulose membrane by 360 mA constant current for 1 hour.

T1 sequence (P10451 17-314 limits assumed): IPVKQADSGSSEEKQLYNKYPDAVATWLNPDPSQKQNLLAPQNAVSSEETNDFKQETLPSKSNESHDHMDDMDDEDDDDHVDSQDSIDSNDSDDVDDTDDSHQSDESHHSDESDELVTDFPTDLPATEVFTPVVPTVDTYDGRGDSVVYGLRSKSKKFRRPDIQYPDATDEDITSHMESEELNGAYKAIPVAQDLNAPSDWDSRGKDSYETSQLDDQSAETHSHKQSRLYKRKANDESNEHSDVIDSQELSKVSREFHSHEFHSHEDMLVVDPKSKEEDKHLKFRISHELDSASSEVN

binding result (human OPN protein [1]): binds
binding result (KLH-5F12): binds
binding result (phage clone 5F12): binds
binding result (phage clone 5D2): binds
B1: mouse anti-human OPN monoclonal antibody 23C3 (antibody, V domains shown)
VH: EVQLVESGGGLVQPKGSLKISCAASGFTFNIYAMNWVRQAPGKGLEWVARIRSQSNNYTTYYADSVKDRFTISRDDSQSMLYLQMNNLKTEDTAMYYCVRQMGDYWGQGTTLTVSS
VL: YIQMTQSPASLSVSVGETVTITCRASENIYSFLAWYQQKQGKSPQLLVYAATNLADGVPSRFSGSGSGTQFSLKINSLQSEDFGTYYCQHFWGTPFTFGSGTKLEIKR
notes: also called 23C3 mAb; 23C3 monoclonal antibody

binding result (human OPN protein [2]): binds
B2: anti-OPN chimeric antibody c23C3 (antibody, human IgG1, kappa, V domains shown)
VH: B1 VH
VL: B1 VL
notes: 23C3 VH and VL joined by overlap PCR to the cloned human CH (pGEM-T/CH) and CL (pGEM-T/CL); also called C23C3 chimeric antibody; chimeric monoclonal antibody c23C3

binding result (human OPN protein [2]): binds
B3: anti-OPN humanized antibody h23C3 (h23C3Hb/h23C3Lb) (antibody, human IgG1, kappa, V domains shown)
VH: B1 VH with K15G, K19R, I20L, Q78K, S79N, M80S, N87S, M95V, T111L, L112V
VL: YIQMTQSPSSLSASVGDRVTITCRASENIYSFLAWYQQKPGKAPQLLVYAATNLADGVPSRFSGSGSGTQFTLTISSLQPEDFATYYCQHFWGTPFTFGQGTKLEIKR
notes: Humanized variable regions that retain seven murine framework residues, joined to the human CH and CL by the same method as for h23C3Ha/h23C3La; The signal peptide is left out; also called h23C3VHb/h23C3VLb
